Source: paper PMC7797366

How the values were obtained:
[1] = target: T1, LLHD3 (Mus musculus, UniProt P61372;P50481); assay: EMSA
T1 chain: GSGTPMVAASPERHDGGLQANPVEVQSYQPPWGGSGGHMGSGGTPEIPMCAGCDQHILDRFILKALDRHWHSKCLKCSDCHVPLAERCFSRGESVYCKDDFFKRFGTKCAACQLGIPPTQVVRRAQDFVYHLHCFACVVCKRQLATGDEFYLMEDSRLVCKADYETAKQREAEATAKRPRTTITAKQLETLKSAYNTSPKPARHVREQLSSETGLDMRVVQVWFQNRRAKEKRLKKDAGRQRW

[2] = target: T2, 2HD (Mus musculus, UniProt P61372;P50481); assay: SAXS
T2 chain: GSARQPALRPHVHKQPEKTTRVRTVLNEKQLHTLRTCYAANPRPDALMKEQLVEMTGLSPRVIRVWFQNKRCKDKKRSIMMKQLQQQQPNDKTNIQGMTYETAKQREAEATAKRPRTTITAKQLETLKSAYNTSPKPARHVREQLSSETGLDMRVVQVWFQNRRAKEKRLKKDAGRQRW

[3] = target: T3, 2HDLL (Mus musculus, UniProt P61372;P50481); assay: SEC-MALLS, SAXS
T3 chain: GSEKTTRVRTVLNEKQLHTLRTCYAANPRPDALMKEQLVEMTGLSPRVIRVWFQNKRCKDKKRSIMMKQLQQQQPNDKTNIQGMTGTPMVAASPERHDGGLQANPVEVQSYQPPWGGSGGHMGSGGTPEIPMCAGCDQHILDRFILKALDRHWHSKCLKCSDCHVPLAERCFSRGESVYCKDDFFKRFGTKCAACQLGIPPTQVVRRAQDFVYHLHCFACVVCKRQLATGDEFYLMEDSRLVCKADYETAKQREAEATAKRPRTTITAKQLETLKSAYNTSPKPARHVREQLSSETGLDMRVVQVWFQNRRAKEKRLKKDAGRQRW

[4] = target: T1, LLHD3; assay: EMSA

B1: M100 (EMSA) (dsDNA)
DNA 1: CGGCCATTAGCCAAATTACGGC
DNA 2: GCCGTAATTTGGCTAATGGCCG
How did the Kd [1] turn out when B1 was run?
The Kd was 1000 nM.

B2: M100 20-mer (SAXS) (dsDNA)
DNA 1: CCGCATTAGCCAAATTACGC
DNA 2: GCGTAATTTGGCTAATGCGG
Does B2 bind [2]?
Result: binds

Does B2 bind [3]?
Result: binds

B3: ISL1GA (dsDNA)
DNA 1: ACCGCGTAATATCTG
DNA 2: CAGATATTACGCGGT
Does B3 bind [4]?
Result: no binding
